Results taken from the nanobody polyreactivity screen of Harvey et al. (2022).

Assay: yeast display, Sf9 membrane polyspecificity reagent, FACS + sequencing; frameworks hold sequencing errors
In short: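 Polyreactivity labels are assigned by the sorting gate from which each nanobody was recovered. The gates were low and high (top ~1%), set on anti-HA fluorescence for expression and streptavidin fluorescence for reagent binding. Before sorting, galactose-induced (36–48 hours) yeast display cells were stained for 1 hour at 4 °C with 10% biotinylated, detergent-solubilized Sf9 membrane reagent.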

Sequence | polyreactivity (PSR sort gate)
QVQLVESGGGLVQAGVSLRLSCAASGSTFTYNAKGWYRQEPGKEMELVAAIRSNGGSTYADSVKGRFTISRDNAKNTVYFQMNSMKPEDTAVYYCAARWRDYYRWGSRGGYGYWGQGTQVTVSS | high polyreactivity
QVQLVESGGGLVQAGVSLRLSCAASGSTFYDIAMGWYRQATGKDRELVAAISYSGASTYYADSVKGRFTISRDNAKNTVYLHINSLKPEDTAVYYCAKTFYTLYWGQGTKVTVSS | low polyreactivity
QVQLVESGGGLVQAGVSLRLSCAASGSTLYGYAMGWYRQAPGKERELVAAINTGGSTNYADSVKGRFTISRDNSKNTVYLQMNSLKPEDTAVYYCAASYSLTFWDKDDYWGQGTQVTVSS | low polyreactivity
QVQLVESGGGLVQAGVSLRLSCAASGYIIIVYTMGWYRQAPGKERELVAAISSGGITDYADSVKGRFTISRDNAKNTVYLQMNSLKPEDTAVYYWGQGTQVTVSS | low polyreactivity
QVQLVESGGGLVQAGVSLRLSCAAYGRIFGPYAMGWYRQAPGKERELVATITWRTGSTYYADSVKGRFTISRDNAKNTVYLQMNSLKPEDTAVYYCAARYGRYSKAGDYWGLGTQVTVSS | high polyreactivity
QVQLVESGGGLVQAGVSLRLSCVPPDLPSTLNVMGWYRQAPGKERELVAAITSSGGSTRYADCVKGRFTISRDNAKNTVYLQMNSLKPEDTAVYYCAASRDKYGNRVRPFDYWGQGTQVTVSS | low polyreactivity
QVQLVESGGGLVQARGSLRLSCAASGFGWYAMGWYRQAPGKEREFVAAISRGGGSTYYADSVKGRFTISRDNAKNTVYLQMNSLKQEDTAVYYCAAVYYRRISQGDTQTYYQYNYWGQGTKVTVSS | high polyreactivity
QVQLVESGGGLVQARGSLRLSCAASGFIFSYYAMGWYRQAPGKERELVAAISSSGGTTYADSVKGRFTISRDNAKNTVYLQMNSLKPEDTAVYYCARVQYWFYKPMYYWGQGTQVTVSS | high polyreactivity
QVQLVESGGGLVQARGSLRLSCAASGFTFDQYTMGWYRQAPGKERELVAAISSSGGSTYYADSVKGRFTISRDNAKKTVYLQMNSLKPEDTAVYYCAARFLLTQRFSHDYWGQGTQVTVSS | low polyreactivity
QVQLVESGGGLVQARGSLRLSCAASGGNISYNAMGRYRQAPGKEREFVASISSSGGRTYYADSVKGRFTISRDNAKNTVYLQMNSLKPEDTAVFYCNADAQVEYGLFGQGWVTSFDYWGEGTQVTVSS | low polyreactivity
QVQLVESGGGLVQARGSLRLSCAASGIIFSTYAMGWYRQAPGKERELVAAISASGVRTYYADSVKGRFTISRDNAKNTVYLQMNSLKPEDTAVYYCAVRGYPYLRYYWGQGTQVTVSS | high polyreactivity
QVQLVESGGGLVQARGSLRLSCAASGIIFYSYAMGWYRQAPGKEREFVAAITNSDGSTYYADSVKGRFTISRDNAKNTVYLQMNSLKPEDTAVYMYYWGQGTQVTVSS | low polyreactivity
QVQLVESGGGLVQARGSLRLSCAASGLIFYGNAMGWYRQAPGKERELVAAISRRGGRTYYADSVKGRFTISRDNAKNTVYLQMNSLKPEDTAVYYCAKRYKSIPRYWSKEYDYWGQGTQVTVSS | high polyreactivity
QVQLVESGGGLVQARGSLRLSCAASGNIFYRYAMGWYRQATGKERELVAAISFSGGGTYYADSVKGRFTISRDNAKNTVYLQMNSLKPEDTAVYYCAAYRRGCYDYWGQGTQVTVSS | high polyreactivity
QVQLVESGGGLVQARGSLRLSCAASGRIFFRNAKGWYRQAPGKERELVAAITYSGGSTYYADSVKGRFTISRDNAKNTVYLQMNSLKPEDTAVYYCGAGYWFSYSRVTRYDYWGQGTQVTVSS | high polyreactivity
QVQLVESGGGLVQARGSLRLSCAASGRSFVINAMGWYRPAPGKERELVAGITSSGNTNYADSVKGRFTISRDNAKNTVYLQMNSLKPEDTAVYDCNAQVYLTWLTYWLYYPPNDYWGQGTQVTVSS | low polyreactivity
QVQLVESGGGLVQARGSLRLSCAASGRTFAIYAMGWYRPAPGKEREFVAAISWSGGDTYYADSVKGRFTISRDNAKNTVYLQMNSLKPEDTAVYYCAARDNDYEGRDLQYELDYWGQGSQVTVSS | low polyreactivity
QVQLVESGGGLVQARGSLRLSCAASGRTFVVYDMGWYRPAPGKERALVAAITWSGGSTYYADSVKGRFTSSRDTAKNTVYLQMHSLKPEDTAVYYCAAGYYYFWTYAYWGQGTQVTVSS | low polyreactivity
QVQLVESGGGLVQARGSLRLSCAASGRTVTYYAMGWYRQAPGKERELVAAISSGDSTYYADSVKGRFTISRDNAKNTVYLQMNSLKPEDTAVYYCAVDHVSRYYGYPEITYDYWGQGTQVSVSS | low polyreactivity
QVQLVESGGGLVQARGSLRLSCAASGSIFAQYAMGWYRQAPGKERELVAAITRSTGRTYYADSVKGRFTISRDNANNTVYLQMNSLKPEDTSVYYGNARQRQSKYYPYTTFTYDYWGQGTQVTVSS | high polyreactivity
QVQLVESGGGLVQARGSLRLSCAASGSIFDGNAMGWYRQAPGKERELVAAITWRGTRTYYADSVKGRFTISRDNAKNTVYLQMNSLKPEDTAVYYCNKKWYPYLEHDYWGQGTQGTVSS | high polyreactivity
QVQLVESGGGLVQARGSLRLSCAASGSIFRGYGMRRYIQAPGKERELVAAINYSGGSTYYADSVKGRFTISRDNAKNTVYLQMNSLKPEDTGVYYCNNDYYRQRGEYYYWGQGTQVTVSS | high polyreactivity
QVQLVESGGGLVQARGSLRLSCAASGSIFRKYAMGWYRQAPGKERELVAVITTDGSTNYADSVKGRFTISRDNAKNTVYLQMNSLKPEDTAVYYCNAVRSSIGTDNVYWGLGTQVTVSS | low polyreactivity
QVQLVESGGGLVQARGSLRLSCAASGSIFYPYAMGWYRQAPGKERELVAGISRSGASTYYADSVKGRFTISRDNAKNTVYLQMNSLKPEDTAVYYCAADDWTRNYWGQGTQVTVSS | low polyreactivity
QVQLVESGGGLVQARGSLRLSCAASGSTFIRYAMGWYRQAPGKERELVAAITWRGGSTYYADSVKGRFTISRDNAKNTVYLQMNSLKPEDTAVYYCAARDRDTRNYYWGQGTQGTVSS | high polyreactivity
QVQLVESGGGLVQARGSLRLSCAASGSTFSRNVMGWYRQATGKERELVAAISRGGSTNYADSVKGRFTISRDNAKNTVYLQMNSLKPEDTAVDYCAARSYGSTGPHGLKWVSYDYWGQGTQVTVSS | low polyreactivity
QVQLVESGGGLVQARGSLRLSCAASGSTSDINAMGWYRHAPGKARELVAVITDSSNTDYADSVKGRFTISRDNAKNTVYLQMNSLKPEDTAVYYCARDDATAGDYWGQGTQVTVSS | low polyreactivity
QVQLVESGGGLVQARGSLRLSCAASRLIFTWYAMRWSRHAPGKERELVAAISWSDDSTNYADSVKGRFTISRDNAKNTVYLLMNSLKPEDTAVYYCATQLDYGGRVGDADDYWGQGTQVTVSS | low polyreactivity
QVQLVESGGGLVQARGSLRLSCAGSGSTLPSYAMGWYRQAPGKERELVAAISSSGGRTYYADSVKGRFTISRDNAKNTVYLLMNSLKPEDTAVYYCAALSVANYHGTDSGYWGQGTQVTVSS | high polyreactivity
QVQLVESGGGLVQARGSLRLSCASSGFIFSRYAMGWYRQAPGKESELVAAITSGGSTYYADSVKGRFTISRDNAKNTVYLQMNSLKPEDTAVYYCNVVSKSRISQYVGYSYDYWGQGTQVTVSS | high polyreactivity
